Laboratory results reported in patent publication US20170363643A1.

How the values were obtained:
[1] = molecular target: endogenous SMN protein in human CSF (human) (UniProt Q16637); assay: Erenna sandwich assay, capture MABE230; human CSF sample 5, unspiked (endogenous SMN only)
[2] = molecular target: His-tagged recombinant human SMN protein (ProteinTech, catalog # ag14333) (human) (UniProt Q16637); assay: Erenna sandwich assay, capture MABE230 12.5 µg/mg MPs; Det Ab 1000 ng/mL; SMN 66.67 pg/mL
[3] = molecular target: His-tagged recombinant human SMN protein (ProteinTech, catalog # ag14333) (human) (UniProt Q16637); assay: Erenna sandwich assay, capture MABE230; SMN 2 pg/mL, MPs 5 µg/well, Det Ab 500 ng/mL, Cap Ab/MP 25 µg/mg
[4] = molecular target: His-tagged recombinant human SMN protein (ProteinTech, catalog # ag14333) (human) (UniProt Q16637); assay: Erenna sandwich assay, capture MABE230; human CSF sample 4 spiked with recombinant SMN 10.0 pg/mL (endogenous SMN also present)
[5] = molecular target: His-tagged recombinant human SMN protein (ProteinTech, catalog # ag14333) (human) (UniProt Q16637); assay: Erenna sandwich assay, capture MABE230 12.5 µg/mg MPs; Det Ab 500 ng/mL; SMN 0.23 pg/mL
[6] = molecular target: His-tagged recombinant human SMN protein (ProteinTech, catalog # ag14333) (human) (UniProt Q16637); assay: Erenna sandwich assay, capture MABE230 12.5 µg/mg MPs; Det Ab 1000 ng/mL; SMN 22.22 pg/mL
[7] = molecular target: His-tagged recombinant human SMN protein (ProteinTech, catalog # ag14333) (human) (UniProt Q16637); assay: Erenna sandwich assay, capture MABE230 12.5 µg/mg MPs; Det Ab 500 ng/mL; SMN 0.46 pg/mL
[8] = molecular target: His-tagged recombinant human SMN protein (ProteinTech, catalog # ag14333) (human) (UniProt Q16637); assay: Erenna sandwich assay, capture MABE230; SMN 2 pg/mL, MPs 5 µg/well, Det Ab 500 ng/mL, Cap Ab/MP 12.5 µg/mg
[9] = molecular target: His-tagged recombinant human SMN protein (ProteinTech, catalog # ag14333) (human) (UniProt Q16637); assay: Erenna sandwich assay, capture MABE230; SMN 2 pg/mL, MPs 5 µg/well, Det Ab 100 ng/mL, Cap Ab/MP 25 µg/mg
[10] = molecular target: His-tagged recombinant human SMN protein (ProteinTech, catalog # ag14333) (human) (UniProt Q16637); assay: Erenna sandwich assay, capture MABE230 12.5 µg/mg MPs; Det Ab 500 ng/mL; SMN 22.22 pg/mL
[11] = molecular target: endogenous SMN protein in human CSF (human) (UniProt Q16637); assay: Erenna sandwich assay, capture MABE230; human CSF sample 3, unspiked (endogenous SMN only)

Substance “ProteinTech anti-SMN2 (catalog #60154-1-Ig) (antibody)” has a detected events (DE) (detected events) [1] of 479, a detected events (DE) (detected events) [2] of 11500 and an event photons (EP) (event photons) [2] of 1.06e+07. For the same substance, the detected events (DE) (detected events) [3] was 1930, the detected events (DE) (detected events) [4] was 8660 and the detected events (DE) (detected events) [5] was 301. For the same substance, the event photons (EP) (event photons) [5] was 40000, the detected events (DE) (detected events) [6] was 13100 and the event photons (EP) (event photons) [6] was 4.64e+06. For the same substance, the detected events (DE) (detected events) [7] was 562, the event photons (EP) (event photons) [7] was 77500 and the detected events (DE) (detected events) [8] was 1950. For the same substance, the detected events (DE) (detected events) [9] was 817, the detected events (DE) (detected events) [10] was 12200 and the event photons (EP) (event photons) [10] was 3.85e+06. The detected events (DE) (detected events) [11] was 278.
